What was measured:
[1] = system: human monocyte-derived DCs; settings: negative control; Olivar et al. 2013; cited from earlier work
[2] = system: human monocyte-derived DCs; experiment: Immunomodulatory activity over human monocyte-derived DCs: CD83/CD86 surface expression by flow cytometry after LPS maturation; type: cell-based; settings: MoDCs pre-incubated with 5 μg/ml protein, LPS challenge; FIG. 4

B1: C4BP(β+): major C4BP α7β1 plus minor C4BP α6β1 isoforms (in complex with ProS) purified from pooled human plasma; negative control (protein, UniProt P04003 49-597; P20851 18-252, looked up)
C4b-binding protein alpha …: NCGPPPTLSFAAPMDITLTETRFKTGTTLKYTCLPGYVRSHSTQTLTCNSDGEWVYNTFCIYKRCRHPGELRNGQVEIKTDLSFGSQIEFSCSEGFFLIGSTTSRCEVQDRGVGWSHPLPQCEIVKCKPPPDIRNGRHSGEENFYAYGFSVTYSCDPRFSLLGHASISCTVENETIGVWRPSPPTCEKITCRKPDVSHGEMVSGFGPIYNYKDTIVFKCQKGFVLRGSSVIHCDADSKWNPSPPACEPNSCINLPDIPHASWETYPRPTKEDVYVVGTVLRYRCHPGYKPTTDEPTTVICQKNLRWTPYQGCEALCCPEPKLNNGEITQHRKSRPANHCVYFYGDEISFSCHETSRFSAICQGDGTWSPRTPSCGDICNFPPKIAHGHYKQSSSYSFFKEEIIYECDKGYILVGQAKLSCSYSHWSAPAPQCKALCRKPELVNGRLSVDKDQYVEPENVTIQCDSGYGVVGPQSITCSGNRTWYPEVPKCEWETPEGCEQVLTGKRLMQCLPNPEDVKMALEVYKLSLEIEQLELQRDSARQSTLDKEL
C4b-binding protein beta chain: SDAEHCPELPPVDNSIFVAKEVEGQILGTYVCIKGYHLVGKKTLFCNASKEWDNTTTECRLGHCPDPVLVNGEFSSSGPVNVSDKITFMCNDHYILKGSNRSQCLEDHTWAPPFPICKSRDCDPPGNPVHGYFEGNNFTLGSTISYYCEDRYYLVGVQEQQCVDGEWSSALPVCKLIQEAPKPECEKALLAFQESKNLCEAMENFMQQLKESGMTMEELKYSLELKKAELKAKLL
modifications: in complex with protein S
notes: major C4BP α7β1 plus minor C4BP α6β1 isoforms (in complex with ProS) purified from pooled human plasma; negative control
immunomodulatory activity [1]: no immunomodulatory activity | semi-mature, anti-inflammatory phenotype conferred to LPS-matured MoDCs (immunomodulatory activity) [2]: inactive

Reference: patent US12006343B2, “C4BP-based compounds for treating immunological diseases” (FUNDACIO INSTITUT D'INVESTIGACIO BIOMEDICA DE BELLVITGE …, priority 2017, dated 2024)
